Measurements published in patent publication US20180346602A1.

What was measured:
[1] = target: anti-VEGF/ANG2 antibody (IgG1 subclass with mutations P329G/L234A/L235A) [IgG part: P01857]; experiment: sandwich ELISA assay A; capture M1.7.10-Bi; antibody 2 at 3 ng/mL
[2] = target: anti-IGF-1R antibody (IgG1 subclass with mutations I253A/H310A/H435A) [IgG part: P01857]; experiment: sandwich ELISA assay A; capture M1.7.10-Bi; antibody 3 at 3 ng/mL
[3] = target: anti-P-Selectin antibody (IgG4 subclass with mutations S228P/L235E) [IgG part: P01861]; experiment: sandwich ELISA assay A; capture M1.7.10-Bi; antibody 4 at 2 ng/mL
[4] = target: anti-P-Selectin antibody (IgG4 subclass with mutations S228P/L235E) [IgG part: P01861]; experiment: sandwich ELISA assay A; capture M1.7.10-Bi; antibody 4 at 3 ng/mL
[5] = target: anti-VEGF/ANG2 antibody (wild-type IgG1 subclass) [IgG part: P01857]; experiment: sandwich ELISA assay A; capture M1.7.10-Bi; antibody 5 at 2 ng/mL
[6] = target: anti-VEGF/ANG2 antibody (wild-type IgG1 subclass) [IgG part: P01857]; experiment: sandwich ELISA assay A; capture M1.7.10-Bi; antibody 5 at 3 ng/mL
[7] = target: anti-VEGF/ANG2 antibody (wild-type IgG1 subclass) [IgG part: P01857]; experiment: sandwich ELISA assay A; capture M1.7.10-Bi; antibody 5 at 6 ng/mL
[8] = target: anti-VEGF/ANG2 antibody (IgG1 subclass with mutations P329G/L234A/L235A/I253A/H310A/H435A) [IgG part: P01857]; experiment: sandwich ELISA assay A; capture M1.7.10-Bi; antibody 1 at 25 ng/mL
[9] = target: anti-IGF-1R antibody (IgG1 subclass with mutations I253A/H310A/H435A) [IgG part: P01857]; experiment: sandwich ELISA assay A; capture M1.7.10-Bi; antibody 3 at 25 ng/mL
[10] = target: anti-P-Selectin antibody (IgG4 subclass with mutations S228P/L235E) [IgG part: P01861]; experiment: sandwich ELISA assay A; capture M1.7.10-Bi; antibody 4 at 13 ng/mL
[11] = target: anti-VEGF/ANG2 antibody (wild-type IgG1 subclass) [IgG part: P01857]; experiment: sandwich ELISA assay A; capture M1.7.10-Bi; antibody 5 at 25 ng/mL
[12] = target: anti-VEGF/ANG2 antibody (IgG1 subclass with mutations P329G/L234A/L235A) [IgG part: P01857]; experiment: sandwich ELISA assay A; capture M1.7.10-Bi; antibody 2 at 100 ng/mL
[13] = target: anti-P-Selectin antibody (IgG4 subclass with mutations S228P/L235E) [IgG part: P01861]; experiment: sandwich ELISA assay A; capture M1.7.10-Bi; antibody 4 at 100 ng/mL
[14] = target: anti-VEGF/ANG2 antibody (wild-type IgG1 subclass) [IgG part: P01857]; experiment: sandwich ELISA assay A; capture M1.7.10-Bi; antibody 5 at 100 ng/mL
[15] = target: anti-VEGF/ANG2 antibody (IgG1 subclass with mutations P329G/L234A/L235A/I253A/H310A/H435A) [IgG part: P01857]; experiment: sandwich ELISA assay A; capture M1.7.10-Bi; antibody 1 at 0 ng/mL (blank)
[16] = target: anti-P-Selectin antibody (IgG4 subclass with mutations S228P/L235E) (human) [IgG part: P01861]; experiment: sandwich ELISA assay C; capture on SA plate; tracer FcγRI-Dig; analyte 6 ng/mL
[17] = target: anti-VEGF/ANG2 antibody (IgG1 subclass with mutations P329G/L234A/L235A) (human) [IgG part: P01857]; experiment: as above
[18] = target: anti-VEGF/ANG2 antibody (IgG1 subclass with mutations P329G/L234A/L235A/I253A/H310A/H435A) (human) [IgG part: P01857]; experiment: as above
[19] = target: anti-IGF-1R antibody (IgG1 subclass with mutations I253A/H310A/H435A) (human) [IgG part: P01857]; experiment: sandwich ELISA assay B; capture on SA plate; tracer M1.7.10-Dig; analyte 50 ng/mL
[20] = target: anti-P-Selectin antibody (IgG4 subclass with mutations S228P/L235E) (human) [IgG part: P01861]; experiment: as above
[21] = target: anti-VEGF/ANG2 antibody (IgG1 subclass with mutations P329G/L234A/L235A) (human) [IgG part: P01857]; experiment: as above
[22] = target: anti-VEGF/ANG2 antibody (IgG1 subclass with mutations P329G/L234A/L235A/I253A/H310A/H435A) (human) [IgG part: P01857]; experiment: as above
[23] = target: anti-IGF-1R antibody (IgG1 subclass with mutations I253A/H310A/H435A) (human) [IgG part: P01857]; experiment: sandwich ELISA assay B; capture on SA plate; tracer M1.7.10-Dig; analyte 100 ng/mL
[24] = target: anti-P-Selectin antibody (IgG4 subclass with mutations S228P/L235E) (human) [IgG part: P01861]; experiment: as above
[25] = target: anti-VEGF/ANG2 antibody (IgG1 subclass with mutations P329G/L234A/L235A) (human) [IgG part: P01857]; experiment: as above
[26] = target: anti-VEGF/ANG2 antibody (IgG1 subclass with mutations P329G/L234A/L235A/I253A/H310A/H435A) (human) [IgG part: P01857]; experiment: as above

signal [OD405 nm] [1] [OD405 nm]	signal [OD405 nm] [2] [OD405 nm]	signal [OD405 nm] [3] [OD405 nm]	signal [OD405 nm] [4] [OD405 nm]	signal [OD405 nm] [5] [OD405 nm]	signal [OD405 nm] [6] [OD405 nm]	signal [OD405 nm] [7] [OD405 nm]	signal [OD405 nm] [8] [OD405 nm]	signal [OD405 nm] [9] [OD405 nm]	signal [OD405 nm] [10] [OD405 nm]	signal [OD405 nm] [11] [OD405 nm]	signal [OD405 nm] [12] [OD405 nm]	signal [OD405 nm] [13] [OD405 nm]	signal [OD405 nm] [14] [OD405 nm]	signal [OD405 nm] [15] [OD405 nm]	signal [OD405 nm] [16] [OD405 nm]	signal [OD405 nm] [17] [OD405 nm]	signal [OD405 nm] [18] [OD405 nm]	signal [OD405 nm] [19] [OD405 nm]	signal [OD405 nm] [20] [OD405 nm]	Binder	also measured
1.22	0.036	0.034	0.033	0.034	0.033	0.036	0.04	0.043	0.038	0.037	3.04	0.04	0.042	0.044	1.18	1.22	1.17	0.048	0.049	anti-variant (human) Fc-region antibody M1.3.17 (antibody, V domains shown) VH: EVKLLESGGGLVQPGGSLKLSCAASGIDFRRYWMNWVRQAPGKGLEWIGEIDPDSSTINYTPSLKDKFIISRDNAKNTMYLQMRKVRSEDTALYYCARPYDYGAWFAYWGQGTLVTVSA VL: QAVVTQESALTTSPGETVTLTCRSTTGAVTTSNYANWVQEKPDHLFTGLIGGTNKRAPGVPARFSGSLIGDKAALTITGAQTEDEAIYFCALWYSDHWVFGGGTKLTVL	signal [OD405 nm] [21]: 0.215 OD405 nm; signal [OD405 nm] [22]: 0.035 OD405 nm; signal [OD405 nm] [23]: 0.05 OD405 nm; signal [OD405 nm] [24]: 0.048 OD405 nm; signal [OD405 nm] [25]: 0.216 OD405 nm; signal [OD405 nm] [26]: 0.035 OD405 nm
1.73	0.045	0.036	0.04	0.038	0.038	0.042	0.047	0.047	0.046	0.039	2.65	0.046	0.042	0.05	0.053	0.06	0.079	0.064	0.043	anti-variant (human) Fc-region antibody M1.7.24 (antibody, V domains shown) VH: EVKLLESGGGLVQPGGSLKLSCAASGFDFSRYWMNWVRQAPGKGLEWIGEITPDSSTINYTPSLKDKFIISRDNAKNTLYLQMIKVRSEDTALYYCVRPYDYGAWFASWGQGTLVTVSA VL: QAVVTQESALTTSPGETVTLTCRSSTGAVTTSNYANWVQEKPDHLFTGLIGGTNKRAPGVPARFSGSLIGDKAALTITGAQTEDEAIYFCALWYSNHWVFGGGTKLTVL	signal [OD405 nm] [21]: 3.17 OD405 nm; signal [OD405 nm] [22]: 0.06 OD405 nm; signal [OD405 nm] [23]: 0.098 OD405 nm; signal [OD405 nm] [24]: 0.05 OD405 nm; signal [OD405 nm] [25]: 3.23 OD405 nm; signal [OD405 nm] [26]: 0.057 OD405 nm
0.039	0.414	0.04	0.037	0.047	0.039	0.046	0.061	2.51	0.05	0.053	0.076	0.057	0.056	0.058	0.051	0.06	0.06	2.9	0.047	anti-AAA variant Fc-region antibody M1.6.22 (antibody, V domains shown) VH: EVQLVESGGDLVKPGGSLKLSCAASGFTFSSYGMSWVRQTPDKRLEWVATISSGGSYIYYPDSVKGRFTISRDNAKNTLYLQMSSLKSEDTAMYYCARLGMITTGYAMDYWGQGTSVTVSS VL: DVLMTQTPLSLPVSLGDQASISCRSSQTIVHSTGHTYLEWFLQKPGQSPKLLIYKVSNRFSGVPDRFSGSGSGTDFTLKISRVEAEDLGVYYCFQGSHVPYTFGGGTKLEIK	signal [OD405 nm] [21]: 0.127 OD405 nm; signal [OD405 nm] [22]: 0.05 OD405 nm; signal [OD405 nm] [23]: 2.9 OD405 nm; signal [OD405 nm] [24]: 0.051 OD405 nm; signal [OD405 nm] [25]: 0.21 OD405 nm; signal [OD405 nm] [26]: 0.052 OD405 nm
